Test results: paper PMC6934155

Assays:
[1] = biological target: Fatty acid synthase (FAS) of S. pombe, co-purified with Rad3/Rad26 (S. pombe) (UniProt Q9UUG0)
[2] = biological target: Rad3/Rad26 (ATR/ATRIP homolog in Schizosaccharomyces pombe) with TAPm-Rad3 (S. pombe) (UniProt Q02099); experiment: co-IP

specific (catalytic) activity of co-purified FAS relative to apo-state FAS [1] [%]	fold of co-precipitation compared with control (CPT-treated cells) [2] [times]	fold of co-precipitation compared with control (MMS-treated cells) [2] [times]	Substance
23.3	–	–	Rad3/Rad26 (ATR/ATRIP homolog in Schizosaccharomyces pombe) with TAPm-Rad3, Q02099 1-2386; P36632 1-614
–	1.79	2.01	Apo-state fatty acid synthase (FAS) of S. pombe with Fas1-FLAG, Q9UUG0 1-2073; Q10289 1-1842
